From patent publication US20100015637A1 (AbbVie / Abbott, published 2010)

Experiments:
[1] = molecular target: human PlGF-1 comprising amino acids 1-137 produced in human embryonic kidney cells (human) (UniProt P49763); assay: Format 3 Quantikine ELISA, capture MAb264, detection Pb264; sFlt-1 4600 pmol/L (ratio 150)
[2] = molecular target: human PlGF-1 comprising amino acids 1-137 produced in human embryonic kidney cells (human) (UniProt P49763); assay: Format 1 …, capture 2-826-335, detection 1-255-713; sFlt-1 1227 pmol/L (ratio 40)
[3] = molecular target: human PlGF-1 comprising amino acids 1-137 produced in human embryonic kidney cells (human) (UniProt P49763); assay: Format 1 …, capture 2-826-335, detection 1-255-713; sFlt-1 2300 pmol/L (ratio 75)
[4] = molecular target: human PlGF-1 comprising amino acids 1-137 produced in human embryonic kidney cells (human) (UniProt P49763); assay: Format 1 …, capture 2-826-335, detection 1-255-713; sFlt-1 4600 pmol/L (ratio 150)
[5] = molecular target: human PlGF-1 comprising amino acids 1-137 produced in human embryonic kidney cells (human) (UniProt P49763); assay: Format 1 …, capture 2-826-335, detection 1-255-713; sFlt-1 0 pmol/L (ratio 0)
[6] = molecular target: human PlGF-1 comprising amino acids 1-137 produced in human embryonic kidney cells (human) (UniProt P49763); assay: Format 3 Quantikine ELISA, capture MAb264, detection Pb264; sFlt-1 2300 pmol/L (ratio 75)
[7] = molecular target: recombinant human PlGF-1 (comprising amino acids 1-131) expressed in E. coli (R&D Systems) (human) (UniProt P49763); assay: … sandwich, capture MAb826, detection pAb264; antigen 60 pg/mL
[8] = molecular target: T1, human PlGF-1 fragment (comprising amino acids 17-131) produced in human embryonic kidney cells (human, UniProt P49763 35-221); assay: … sandwich, capture MAb826, detection pAb264; antigen 250 pg/mL
T1 sequence: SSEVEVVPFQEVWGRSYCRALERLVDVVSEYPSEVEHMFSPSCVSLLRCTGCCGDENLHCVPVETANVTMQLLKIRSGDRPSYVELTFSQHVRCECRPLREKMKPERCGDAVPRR

[9] = molecular target: T2, CHO human PlGF-1 fragment (comprising amino acids 17-131; ATCC PTA-8540) (human, UniProt P49763 35-221); assay: as above
T2 sequence: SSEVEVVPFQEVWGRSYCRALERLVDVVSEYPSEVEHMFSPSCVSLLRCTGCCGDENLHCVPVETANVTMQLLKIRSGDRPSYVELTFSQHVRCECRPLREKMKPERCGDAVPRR

[10] = molecular target: T3, CHO human PlGF-1 comprising amino acids 1-137 (human PlGF-1-His (1-131), CHO 6305) (human, UniProt P49763 19-221, N-glycans at N21 (completely glycosylated) and N89 (partially glycosylated)); assay: as above
T3 construct: Mature human PlGF-1 with 6xHis tag (137 amino acids); also called CHO (1-137)
T3 sequence: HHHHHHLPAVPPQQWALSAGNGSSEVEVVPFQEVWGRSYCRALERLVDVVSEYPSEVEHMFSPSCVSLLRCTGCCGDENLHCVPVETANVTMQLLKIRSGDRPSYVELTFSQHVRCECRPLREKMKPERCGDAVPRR

[11] = molecular target: T4, human PlGF-1 comprising amino acids 1-137 produced in human embryonic kidney cells (human, UniProt P49763 19-221); assay: as above
T4 construct: Mature human PlGF-1 with 6xHis tag; also called HEK (1-137); full length HEK human PlGF-1 (1-137)
T4 sequence: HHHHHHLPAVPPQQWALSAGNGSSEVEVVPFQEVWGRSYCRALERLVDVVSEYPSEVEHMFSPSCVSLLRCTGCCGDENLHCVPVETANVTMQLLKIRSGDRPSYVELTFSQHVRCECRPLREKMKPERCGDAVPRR

[12] = molecular target: recombinant human PlGF-1 (comprising amino acids 1-131) expressed in E. coli (R&D Systems) (human) (UniProt P49763); assay: … sandwich, capture MAb255, detection MAb826; antigen 250 pg/mL
[13] = molecular target: recombinant human PlGF-1 (comprising amino acids 1-131) expressed in E. coli (R&D Systems) (human) (UniProt P49763); assay: … sandwich, capture MAb255, detection pAb264; antigen 60 pg/mL
[14] = molecular target: T2, CHO human PlGF-1 fragment (comprising …); assay: … sandwich, capture MAb255, detection pAb264; antigen 1500 pg/mL
[15] = molecular target: T1, human PlGF-1 fragment (comprising amino …); assay: … sandwich, capture MAb255, detection MAb826; antigen 750 pg/mL
In short: (§1)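 In a sandwich immunoassay, human PlGF-1 antigen preparations, including recombinant forms expressed in CHO cells, were tested at 0 to 1500 pg/mL. Magnetic microparticles carried a monoclonal anti-human PlGF-1 capture antibody, attached by passive coating and EDAC cross-linking, and a second monoclonal anti-human PlGF-1 antibody labeled with acridinium ester served for detection. At each antigen level, the chemiluminescent signal was read in relative light units (RLU).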

[16] = molecular target: T2, CHO human PlGF-1 fragment (comprising …); assay: as above
In short: as §1

[17] = molecular target: T3, CHO human PlGF-1 comprising amino acids …; assay: as above
In short: as §1

[18] = molecular target: T4, human PlGF-1 comprising amino acids …; assay: as above
In short: as §1

[19] = molecular target: recombinant human PlGF-1 (comprising amino acids 1-131) expressed in E. coli (R&D Systems) (human) (UniProt P49763); assay: … sandwich, capture MAb255, detection MAb826; antigen 15 pg/mL

Question: With “native sFlt-1, isolated from human placental tissue (from UniProt P17948 27-687) (receptor)” as the molecule, how does the % Inhibition [1] read?
Answer: The % Inhibition was 81.6%.

Question: What about the PlGF-1 Measured [1] of the same molecule?
Answer: Its PlGF-1 Measured is 159 pg/mL.

Question: What about the % Inhibition [2] of the same molecule?
Answer: The % Inhibition was 91.9%.

Question: And the PlGF-1 Measured [2]?
Answer: Its PlGF-1 Measured is 83.2 pg/mL.

Question: And the % Inhibition [3]?
Answer: The % Inhibition was 93.6%.

Question: And the PlGF-1 Measured [3]?
Answer: The PlGF-1 Measured was 65 pg/mL.

Question: What about the % Inhibition [4] of the same molecule?
Answer: The % Inhibition was 95%.

Question: And the PlGF-1 Measured [4]?
Answer: The PlGF-1 Measured was 51.3 pg/mL.

Question: And the % Inhibition [5]?
Answer: Its % Inhibition is 0%.

Question: And the PlGF-1 Measured [5]?
Answer: The PlGF-1 Measured was 1020 pg/mL.

Question: And the % Inhibition [6]?
Answer: The % Inhibition was 75.9%.

Question: And the PlGF-1 Measured [6]?
Answer: Its PlGF-1 Measured is 209 pg/mL.

B1: monoclonal antibody 2-826-335 (produced by murine hybridoma cell line 2-826-335, ATCC PTA-8539) (antibody, mouse IgG1, V domains shown)
VH: QVQLKQSGPGLVQPSQSLSITCTVSGFSLTTYGIHWVRQSPGKGLEWLGVMWSGGDTDYDAAFISRLSISKDNSKSQVFFKMNSLQANDTGIYYCARYRFYGMDYWGQGTSVTVSS
VL: AIQMTQSSSSFSVSLGDRVTITCKASEDIYNRFAWYQQKPGNAPRLLISGAASLEAGVPSRFSGSGSGQDYTLSITSLQTEDVATYYCQQYWSTPWTFGGGTKLEIKR
notes: also called MAb826
Question: Which RLU [7] does the source give for B1 here?
Answer: The RLU was 65500 RLU.

Question: What about the RLU [8] of the same molecule?
Answer: The RLU was 126000 RLU.

Question: And the RLU [9]?
Answer: Its RLU is 93600 RLU.

Question: And the RLU [10]?
Answer: The RLU was 66100 RLU.

Question: What about the RLU [11] of the same molecule?
Answer: The RLU was 173000 RLU.

B2: monoclonal antibody 1-255-713 (produced by murine hybridoma cell line 1-255-713, ATCC PTA-8536) (antibody, mouse IgG2a, V domains shown)
VH: QVHLQQSGAELMKPGASVKISCKATGYTFSSYWIEWVKQRPGHGLEWIGEILPGSVSNNFNEKFKDKATLTADPSSNTAYIQVSSLTSEDSAVYYCARSTGFYYGGNYFDHWGQGTTLAVSS
VL: DVVMTQTPLSLPVSPGDQASISCRSSQSLVHSNGHTYLHWYLQKPGQSPKLLIYKVSNRFSGVPDRVSGSGSGTDFTLKISRVEAEDLGVYFCSQSTHVPPTFGGGTKLEIKR
notes: also called MAb255
Question: Which results are given for B2?
Answer: RLU [12]: 298000 RLU; RLU [13]: 161000 RLU; RLU [14]: 1.25e+06 RLU; RLU [15]: 576000 RLU; RLU [16]: 395000 RLU; RLU [17]: 400000 RLU; RLU [18]: 890000 RLU; RLU [19]: 22700 RLU
